Consider 15 molecules from US20150344570A1 (published 2015).

T1: FcγRIIb extracellular domain with C-terminal His tag (human, UniProt P31994 43-217)
T1 construct: extracellular domain; Soluble receptor used as analyte in Biacore; also called FcgRIIb; CD32B
T1 sequence (looked up): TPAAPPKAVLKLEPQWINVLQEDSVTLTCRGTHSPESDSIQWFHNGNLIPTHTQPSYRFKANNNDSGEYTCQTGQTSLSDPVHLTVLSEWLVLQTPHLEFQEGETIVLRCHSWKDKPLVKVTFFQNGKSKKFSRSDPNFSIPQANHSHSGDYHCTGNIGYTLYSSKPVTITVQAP

T2: FcγRIIb extracellular domain with C-terminal His tag (human, UniProt P31994 43-217)
T2 construct: extracellular domain; also called FcgRIIb; 2b
T2 sequence (looked up): T1 sequence (looked up)

B1: GpH7-A5/GpH7-B3 variant V266_16H/GpL16-k0 (antibody, human IgG1, kappa)
heavy 1: not shown
heavy 2: not shown
light: DIVMTQSPLSLPVTPGEPASISCQASESLVHSNRNTYLHWYLQKPGQSPQLLIYKVSNRFSGVPDRFSGSGSGTDFTLKISRVEAEDVGVYYCSQNTHVPPTFGQGTKVEIERTVAAPSVFIFPPSDEQLKSGTASVVCLLNNFYPREAKVQWKVDNALQSGNSQESVTEQDSKDSTYSLSSTLTLSKADYEKHKVYACEVTHQGLSSPVTKSFNRGEC
notes: Heterodimerized anti-glypican-3 IgG1; mutation in the GpH7-B3 chain only; also called He Ab V266H
B2: GpH7-A5/GpH7-B3 variant V266_20W/GpL16-k0 (antibody, human IgG1, kappa)
heavy 1: not shown
heavy 2: not shown
light: B1 light
notes: Heterodimerized anti-glypican-3 IgG1; mutation in the GpH7-B3 chain only; also called He Ab V266W
B3: GpH7-A5/GpH7-B3 variant V266_18N/GpL16-k0 (antibody, human IgG1, kappa)
heavy 1: not shown
heavy 2: not shown
light: B1 light
notes: Heterodimerized anti-glypican-3 IgG1; mutation in the GpH7-B3 chain only; also called He Ab V266N
B4: GpH7-A5/GpH7-B3 variant Q295_01G/GpL16-k0 (antibody, human IgG1, kappa)
heavy 1: not shown
heavy 2: not shown
light: B1 light
notes: Heterodimerized anti-glypican-3 IgG1; alteration only in the GpH7-B3 chain, EU numbering; also called He Ab
B5: GpH7-A5/GpH7-B3 variant Q295_12R/GpL16-k0 (antibody, human IgG1, kappa)
heavy 1: not shown
heavy 2: not shown
light: B1 light
notes: as for B4
B6: GpH7-A5/GpH7-B3 variant Q295_20W/GpL16-k0 (antibody, human IgG1, kappa)
heavy 1: not shown
heavy 2: not shown
light: B1 light
notes: as for B4
B7: GpH7-A5/GpH7-B3 variant S298_01G/GpL16-k0 (antibody, human IgG1, kappa)
heavy 1: not shown
heavy 2: not shown
light: B1 light
notes: as for B4
B8: GpH7-A5/GpH7-B3 variant Q295_09D/GpL16-k0 (antibody, human IgG1, kappa)
heavy 1: not shown
heavy 2: not shown
light: B1 light
notes: as for B4
B9: GpH7-A5/GpH7-B3 variant Y296_05P/GpL16-k0 (antibody, human IgG1, kappa)
heavy 1: not shown
heavy 2: not shown
light: B1 light
notes: as for B4
B10: GpH7-A5/GpH7-B3 variant Q295_18N/GpL16-k0 (antibody, human IgG1, kappa)
heavy 1: not shown
heavy 2: not shown
light: B1 light
notes: as for B4
B11: GpH7-A5/GpH7-B3 variant Y296_03V/GpL16-k0 (antibody, human IgG1, kappa)
heavy 1: not shown
heavy 2: not shown
light: B1 light
notes: as for B4
B12: GpH7-A5/GpH7-B3 variant Q295_15Y/GpL16-k0 (antibody, human IgG1, kappa)
heavy 1: not shown
heavy 2: not shown
light: B1 light
notes: as for B4
B13: GpH7-A5/GpH7-B3 variant Q295_04F/GpL16-k0 (antibody, human IgG1, kappa)
heavy 1: not shown
heavy 2: not shown
light: B1 light
notes: as for B4
B14: GpH7-A5/GpH7-B3 variant D270_20W/GpL16-k0 (antibody, human IgG1, kappa)
heavy 1: not shown
heavy 2: not shown
light: B1 light
notes: as for B4
B15: GpH7-A5/GpH7-B3 variant Y296_01G/GpL16-k0 (antibody, human IgG1, kappa)
heavy 1: not shown
heavy 2: not shown
light: B1 light
notes: as for B4

The first test addresses T3, FcγRIa extracellular domain with C-terminal His tag (human, UniProt P12314 16-292).
T3 construct: extracellular domain; Soluble receptor used as analyte in Biacore; also called FcgRI; FcgRIa
As to the kind of experiment: SPR Biacore, antibody captured on antigen-peptide chip, FcγR as analyte. In general terms: SPR reads the build-up and loss of mass on a sensor chip optically.
T3 sequence (P12314 16-292): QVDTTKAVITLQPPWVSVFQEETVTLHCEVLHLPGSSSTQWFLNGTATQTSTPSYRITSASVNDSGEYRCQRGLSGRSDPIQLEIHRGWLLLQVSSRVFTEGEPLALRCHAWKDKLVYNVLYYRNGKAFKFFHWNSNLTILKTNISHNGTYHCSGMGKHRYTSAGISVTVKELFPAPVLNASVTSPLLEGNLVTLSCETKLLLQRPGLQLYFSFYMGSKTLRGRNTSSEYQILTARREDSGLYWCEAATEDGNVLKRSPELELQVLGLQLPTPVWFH
As to B1, the He/Con_1a is 89.1 relative, GpH7-A5/GpH7-B3/GpL16-k0 = 100.
For the molecule B2, the He/Con_1a was 91.4 relative, GpH7-A5/GpH7-B3/GpL16-k0 = 100.
Consider B3, for which the He/Con_1a was 99.5 relative, GpH7-A5/GpH7-B3/GpL16-k0 = 100.

Another test addresses T1, FcγRIIb extracellular domain with …. The description is as above.
Consider B1, for which the He/Con_2b is 57.2 relative, GpH7-A5/GpH7-B3/GpL16-k0 = 100.
With B2, the He/Con_2b was 71.9 relative, GpH7-A5/GpH7-B3/GpL16-k0 = 100.
For the molecule B3, the He/Con_2b was 69.7 relative, GpH7-A5/GpH7-B3/GpL16-k0 = 100.

The target of a further test is T4, FcγRIa extracellular domain with C-terminal His tag (human, UniProt P12314 16-292).
T4 construct: extracellular domain; also called FcgRI; 1a
Kind of test: SPR (Biacore); He/Con_1a divided by He/Con_2b (FcγRIa binding over FcγRIIb binding). On the procedure: (§1) The heterodimerized antibodies He Abs in which one of the H chains was introduced with an alteration were assayed for their binding activities to each activating FcγR and inhibitory FcγR according to the method described in Example 4. […] The activating FcγRs in FIGS. 26, 27, 28, and 29 are FcγRIa, FcγRIIa (R), FcγRIIa (H), and FcγRIIIa, respectively.
(§2) Analysis of interaction between objective antibody and the FcγR was carried out using Biacore T100 (GE Healthcare). HBS-EP+ (GE Healthcare) was used as the running buffer, and the measurement temperature was set to 25° C. Chips produced by immobilizing the antigen peptide by the amine coupling method to a Series S Sencor Chip CM5 (GE Healthcare), or alternatively, chips produced by allowing preliminarily biotinylated antigen peptides to interact with and immobilize onto a Series S Sensor Chip SA (certified) (GE Healthcare) were used. Antibodies of interest were captured onto an antigen peptide-immobilized chip, and allowed to interact to each FcγR diluted with running buffer. To regenerate and repeatedly use the chip, the antibodies captured on the chip were washed off by reacting 10 mM glycine-HCl, pH 1.5.
T4 sequence (P12314 16-292): as above
For the molecule B4, the “He_1a/2b (Ia/IIb)” value was found to be 2.12 ratio.
For the molecule B5, the “He_1a/2b (Ia/IIb)” value was 1.54 ratio.
With B6, the “He_1a/2b (Ia/IIb)” value was determined as 2.11 ratio.
In the case of B7, the “He_1a/2b (Ia/IIb)” value is 1.29 ratio.
Regarding B8, the “He_1a/2b (Ia/IIb)” value was 1.65 ratio.
With B9, the “He_1a/2b (Ia/IIb)” value was 2.61 ratio.
B10: the “He_1a/2b (Ia/IIb)” value was 1.58 ratio.
As to B11, the “He_1a/2b (Ia/IIb)” value came to 1.31 ratio.
In the case of B12, the “He_1a/2b (Ia/IIb)” value stood at 1.56 ratio.
For B13, the “He_1a/2b (Ia/IIb)” value was determined as 1.58 ratio.
Regarding B14, the “He_1a/2b (Ia/IIb)” value came out at 1.96 ratio.
As to B15, the “He_1a/2b (Ia/IIb)” value turned out to be 1.29 ratio.

For the next test, the target named is T4, FcγRIa extracellular domain with …. Kind of test: SPR (Biacore), antibody captured via antigen peptide, FcγR as analyte; relative binding. Here is the method: as §1, §2
With B4, the He/Con_1a was 97.6 % of GpH7-A5/GpH7-B3/GpL16-k0 (=100).
The same measure, in the same setting: next, B5: 100 % of GpH7-A5/GpH7-B3/GpL16-k0 (=100); B6: 93.7 % of GpH7-A5/GpH7-B3/GpL16-k0 (=100); B7: 104 % of GpH7-A5/GpH7-B3/GpL16-k0 (=100).
On the same count and under the same terms, under B8 stands 100 % of GpH7-A5/GpH7-B3/GpL16-k0 (=100); under B9, 95.6 % of GpH7-A5/GpH7-B3/GpL16-k0 (=100).
As for B10, the He/Con_1a is 102 % of GpH7-A5/GpH7-B3/GpL16-k0 (=100).
For the molecule B11, the He/Con_1a is 104 % of GpH7-A5/GpH7-B3/GpL16-k0 (=100).
B12: the He/Con_1a was 102 % of GpH7-A5/GpH7-B3/GpL16-k0 (=100).
For B13, the He/Con_1a was 102 % of GpH7-A5/GpH7-B3/GpL16-k0 (=100).
Regarding B14, the He/Con_1a was 68 % of GpH7-A5/GpH7-B3/GpL16-k0 (=100).
With B15, the He/Con_1a is 103 % of GpH7-A5/GpH7-B3/GpL16-k0 (=100).

The target in the next test is T2, FcγRIIb extracellular domain with …. The test is described as above. Here is the method: as §1, §2
In the case of B4, the He/Con_2b was 46 % of GpH7-A5/GpH7-B3/GpL16-k0 (=100).
In the case of B5, the He/Con_2b was 65.2 % of GpH7-A5/GpH7-B3/GpL16-k0 (=100).
On to B6, for which the He/Con_2b was 44.4 % of GpH7-A5/GpH7-B3/GpL16-k0 (=100).
Turning to B7, the He/Con_2b was 80.1 % of GpH7-A5/GpH7-B3/GpL16-k0 (=100).
With B8, the He/Con_2b was 60.8 % of GpH7-A5/GpH7-B3/GpL16-k0 (=100).
As for B9, the He/Con_2b is 36.6 % of GpH7-A5/GpH7-B3/GpL16-k0 (=100).
The same measure, in the same setting: next, B10: 64.9 % of GpH7-A5/GpH7-B3/GpL16-k0 (=100); B11: 79.3 % of GpH7-A5/GpH7-B3/GpL16-k0 (=100); B12: 65.4 % of GpH7-A5/GpH7-B3/GpL16-k0 (=100).
In the case of B13, the He/Con_2b is 64.7 % of GpH7-A5/GpH7-B3/GpL16-k0 (=100).
On to B14, for which the He/Con_2b was 34.7 % of GpH7-A5/GpH7-B3/GpL16-k0 (=100).
In the case of B15, the He/Con_2b was 79.3 % of GpH7-A5/GpH7-B3/GpL16-k0 (=100).
